Experimental data reported in patent US20250057968A1, “ANTI-DLL3 ANTIBODY AND PHARMACEUTICAL USE THEREOF, AND ANTIBODY-DRUG CONJUGATE CONTAINING ANTI-DLL3 ANTIBODY” (Jiangsu Hengrui Pharmaceuticals Co., Ltd., priority 2021, published 2025).

T1: Human DLL3 full-length protein on cells (human, UniProt Q9NYJ7 27-618)
T1 construct: H1184 and DMS53 express DLL3 themselves; The cell line is named under assay; also called H1184 cells; DLL3/H82
T1 sequence: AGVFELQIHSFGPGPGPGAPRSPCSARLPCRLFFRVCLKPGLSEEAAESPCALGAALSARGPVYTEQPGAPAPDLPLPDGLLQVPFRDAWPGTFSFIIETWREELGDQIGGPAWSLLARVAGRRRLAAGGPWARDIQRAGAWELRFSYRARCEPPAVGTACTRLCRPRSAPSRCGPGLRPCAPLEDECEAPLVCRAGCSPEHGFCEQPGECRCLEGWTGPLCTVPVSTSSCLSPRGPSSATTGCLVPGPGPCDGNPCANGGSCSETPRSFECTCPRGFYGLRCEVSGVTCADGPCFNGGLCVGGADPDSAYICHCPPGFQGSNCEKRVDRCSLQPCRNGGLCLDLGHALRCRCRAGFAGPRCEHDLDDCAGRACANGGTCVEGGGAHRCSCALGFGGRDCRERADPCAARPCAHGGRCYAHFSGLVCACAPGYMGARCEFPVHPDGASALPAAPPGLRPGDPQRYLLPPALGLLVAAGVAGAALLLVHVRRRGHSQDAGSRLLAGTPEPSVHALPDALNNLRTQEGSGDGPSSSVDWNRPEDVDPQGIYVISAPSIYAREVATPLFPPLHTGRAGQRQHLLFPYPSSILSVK


How the values were obtained:
[1] = molecular target: T1, Human DLL3 full-length protein on cells; test: FACS on H1184 cells
Method: Cells of the DLL3-expressing small cell lung cancer cell lines H1184 (ATCC, Cat. No. CRL-5858), DLL3/H82, cynoDLL3/CHO-s, and RatDLL3/CHO-s were suspended at 1×10^6/mL in FACS buffer (1% BSA+pH 7.4 PBS), and the cell suspensions were added to a 96-well round-bottom plate (Corning, 3795) at 100 μL/well. The plate was centrifuged at 300 g for 5 min, and the supernatant was removed. Different concentrations of test antibodies were added at 100 μL/well. The plate was incubated in the dark in a refrigerator at 4° C. for 1 h. After 3 washes by centrifugation at 300 g, working concentrations of APC anti-human IgG Fc (BioLegend, 410712) or PE F(ab′)2-goat anti-human IgG (invitrogen, H10104) were added. The plate was incubated in the dark in a refrigerator at 4° C. for 40 min. After 3 washes by centrifugation at 300 g, the geometric mean fluorescence intensity was measured on an Invitrogen flow cytometer, and the EC50 values of the antibodies in binding to DLL3-expressing cells were calculated.

[2] = molecular target: T1, Human DLL3 full-length protein on cells; test: cell-based or functional assay

| Binder | EC50 [1] | Emax [1] | IC50 (nM), killing of DMS53 (+) cells [2] | IC50 (nM), killing of H1184 (+++) cells [2] |
| --- | --- | --- | --- | --- |
| M6CHI (antibody, human IgG1, kappa, V domains shown, murine variable regions on human IgG1 / kappa constant regions; also called chimeric antibody of mAb6) VH: EVQLQQSGPVLVKPGASVKMSCKASGYTFTDYYMNWVKQSHGKSLEWIGIINPYSGVTIYNHKFKGKATLTVDKSSNTAYMELNSLTSEDSAVYYCARQDSLLDYAMDYWGQGTSVTVSS VL: DILMTQSPSSMSVSLGDTVSITCHASQGISGNMGWLQQKPGKSFKGLIYHGANLEDGVPSRFSGSGSGADYSLTISSLESEDFADYYCVQYAQFPYTFGGGTKLEIKR | 0.14 nM | 3370 | – | – |
| hAb6L4H6 (antibody, human IgG1, kappa, V domains shown) VH: EVQLVQSGSELKKPGASVKVSCKASGYTFTDYYMNWVRQAPGQGLEWMGIINPYSGVTIYNHKFKGRFVLSVDKSSNTAYLQISSLKAEDTAVYYCARQDSLLDYAMDYWGQGTTVTVSS VL: DIQMTQSPSSLSASVGDRVTITCHASQGISGNMGWLQQKPGKAPKGLIYHGANLEDGVPSRFSGSGSGADYTLTISSLQPEDFADYYCVQYAQFPYTFGGGTKVEIKR | 0.17 nM | 2000 | – | – |
| ADC-2 (antibody, human IgG1, kappa, V domains shown, linker-drug L-9 conjugated after TCEP reduction; sites not stated; linker-drug L-9 (ecteinascidin derivative) conjugated after TCEP reduction; sites not stated; DAR n=3.72-4.88 for the whole antibody) VH: EVQLVESGGGLVKPGGSLRLSCAASGFTFSDSGMHWIRQAPGKGLEWVSYISSGSSTIHYADTVKGRFTISRDNAKNSLYLQMNSLRAEDTAVYYCASPLYYYGRSYNAVAYWGQGTTVTVSS VL: DIQMTQSPSSLSASVGDRVTITCHASQNINVWLSWYQQKPGKVPKLLIYKASDLHTGVPSRFSGSGSGTDFTLTISSLQPEDVATYYCQQGQSYPLTFGGGTKVEIKR | – | – | 13.1 nM | 0.11 nM |
